Assay results as given in paper PMC12428095.

What was measured:
Conditions in all cases: EMSA: 20 nM probe, 10 mM Tris-HCl pH 7.5, 50 mM KCl, 10 mM MgCl2, 5% glycerol, 20 min at 4 C, 5% native PAGE in TGE pH 8.3; footprinting: same binding system …
[1] = test system: T1, CopR1 (Pseudomonas putida KT2440), ORF:c26c307e; experiment: DNase I footprinting
T1 sequence: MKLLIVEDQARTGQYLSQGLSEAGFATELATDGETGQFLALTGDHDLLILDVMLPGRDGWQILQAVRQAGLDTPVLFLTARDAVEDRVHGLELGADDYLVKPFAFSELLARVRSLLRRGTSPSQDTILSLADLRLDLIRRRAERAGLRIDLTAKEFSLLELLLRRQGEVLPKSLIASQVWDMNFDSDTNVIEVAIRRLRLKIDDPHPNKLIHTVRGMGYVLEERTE

[2] = test system: T2, CopR2 (Pseudomonas putida KT2440), ORF:6041cc23; experiment: DNase I footprinting
T2 sequence: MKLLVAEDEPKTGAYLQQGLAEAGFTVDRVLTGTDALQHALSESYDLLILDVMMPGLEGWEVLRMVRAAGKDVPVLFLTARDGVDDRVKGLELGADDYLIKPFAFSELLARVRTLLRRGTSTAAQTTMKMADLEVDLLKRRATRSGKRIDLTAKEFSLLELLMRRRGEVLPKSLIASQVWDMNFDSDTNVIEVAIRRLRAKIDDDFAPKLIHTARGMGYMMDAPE

[3] = test system: T1, CopR1 (Pseudomonas putida KT2440), ORF:c26c307e; experiment: EMSA
[4] = test system: T2, CopR2 (Pseudomonas putida KT2440), ORF:6041cc23; experiment: EMSA

Measured: binding

TGTAAAACGACGGCCAGTGGGTGGCGGTAATGAACAGGTGTTTCATGATGACTCCGGGAATACACAGCAGGATGAGGCCACATTAGCCGGGGGCGACTGGCAGCTACCTGACAGGCACATTACAACTTTGTCAGCTTGGGCGAGCGGGCACATCGTCACGTATCATTTCAGCCATCCCATTGCCCCTGTGCTAGCGGTAAGGCGGCGCCATAGGCTACGCACAATCTTTCAGAATATGGACAGCGCATGAAACTGCTGATCGTCGAAGACCAGGC (double strand) [copR1 (copRS1) promoter probe]
binds: all assays above

TCGGTTCATCCTCAGCTACGAGTAGTTTCATGTGCTCAGCTTCCAAAGGTGTACACATCCAGTGTGCAGCAAAAAAAGGAGCTAACCAGAAGCTGACGTAAAAGTAATGTTGGTATCAGCCAGCTGTCAGGGCCTGCCGTCTACGGTCATTGAAGACGGGCATTGCAGTCACGCCTGCCGTTATCGGTAGCAATGGTTTCAACCCCCTGATGGAGAGAGTCCCATGAAATCGATCAGACTTTTGCTTGTGGCTACATCGATGCTGCTGACTGGCCGTCGTTTTACA (double strand) [copR2 (copRS2) promoter probe]
binds: all assays above

CTTTGACAAACGTACGGCGGGAGGGGTTGCGCAACATGGCGAGGCCTCATGCGGAATAGCCACGATGTTCGCTGCCGCCTGCTGTCAGGTAGCTGAGGTGCACATTACAGTGTTGTCAGCTTGCTGCTTCGTCGATGCGCAGGTCGCGCATCAGCAGGCCGTAGTCGAGGGCAACCTGTTCCGGGATCGGCAGATACACCACATGGCCATCGCCCGGTGCGACCTCGATGGCGTGCTGCTACTGGCCGTCGTTTTACA (double strand) [copA1 (copAB1) promoter probe]
binds: all assays above

TGTAAAACGACGGCCAGTAGCCAGAGCCATAAACACGGGCAGCATGAGAACTGCTGATCCGAGCTTACAGAAATGTAATCACTCGGGAATCTTTTATGTGGCAGTTTCAAATCGCTTTCTCCCACTGTGACTTGCGCTTTCGAGCAAGTCCCTAAGACTTGTGGGATCCCCAAGGAAGCCGGGCCTGCGATCGAGCGGCCCGGATATCAGCGAATTATCTGACTGACTGGACACTACGGCATGCAAAGCAAAACCACGAGACGATCTTTCGTCAAAGGCCTGGC (double strand) [copA2 (copAB2) promoter probe]
binds: all assays above
